Molecular target: T1, PARP4 BRCT K31Q (human, UniProt Q9UKK3 1-100, K31Q)
T1 sequence: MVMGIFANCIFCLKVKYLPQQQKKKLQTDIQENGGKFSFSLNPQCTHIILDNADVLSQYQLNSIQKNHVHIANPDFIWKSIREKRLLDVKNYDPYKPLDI
Test: FP; 3 nM probe; FP: 50 mM Tris pH 7.5, 50 mM NaCl, 1 mM MgCl2, 0.05% NP40, 2 mM DTT, 5% glycerol, 25 ug/ml BSA, room temp 30 min; EMSA: 50 mM Tris pH 7.5, 50 mM NaCl, 4% Ficoll PM400, 0.05% NP40, 2 mM DTT, 0-18 uM protein, room temp 30 min, gel at 4 C
Conditions: protein: recombinant; tags: N-terminal His-SUMO removed by TEV; label: 5'-6-FAM; predicted intramolecular fold

B1: vtRNA1-3 (structured_RNA)
RNA: GGCUGGCUUUAGCUCAGCGGUUACUUCGCGUGUCAUCAAACCACCUCUCUGGGUUGUUCGAGACCCGCGGGCGCUCUCCAGCCCUCUU
How did the Kd turn out when B1 was run?
Its Kd is 61 ± 12 µM.

Source: article PMC12212138, “Crystal structure and mutagenesis of a nucleic acid–binding BRCT domain in human PARP4”
